The values that follow are results of earlier work, collected in paper PMC4699190.

pKd: −log10 of the molar value.

The data set concerns the target Carbonic anhydrase II (Homo sapiens) (UniProt P00918). The data set is described as follows: solid-phase binding assay.
For orientation: pKd means the Kd on a negative log10 scale, so that one unit is a factor of ten. For the substance AE1 C-terminus (from UniProt P02730), the pKd was 6.22. For NBCe1 C-terminus (from UniProt Q9Y6R1), the pKd is 6.49. Regarding NDCBE C-terminus (from UniProt Q2Y0W8), the pKd was 6.48.
